Substrate in the series: Nc1ncnc2c1ncn2[C@@H]1O[C@H](COP(=O)(O)OP(=O)(O)OP(=O)(O)O)[C@@H](O)[C@H]1O
Briefly: purified protein.

B1: BaMV helicase-like domain (of BaMV replicase) (Bamboo mosaic virus) (protein)
chain: YSPDIERAAAFARDVMSNKTGAILPKQSHEWKTTLKRKCKLAPRQTLISVIHGAGGSGKSRALQEYMRNNKEDPIVTILPTNELRADWKAKLPAHDPDMFMTFENALLIPKGNVVIMDDYTKLPRGYIEAYVQNSPMLDLLILTGDPRQSEHFESAEGNTINDLSPSPVVFSAYARYYINATHRNNQDLANALGVYSEKQGKTRISVSNHIEDGRHTLVPSQIKQRNYVSMGRKTSTYAGCQGITASRVQVIIDNDTAKCSHQVLYTAFSRAADEIHFCNTMTDEKQFWAKVKCTPYLQAILNLTKEHSLPDP
As to B1, the Km was 148 ± 5 µM and the kcat is 82 s⁻¹.
